Measurements as given in patent publication US10000771B2, “Nuclear targeting sequences” (Yeda Research and Development Co. Ltd., priority 2007, dated 2018).

What was measured:
COS7 cells = experiment: Subcellular fractionation of GFP-ERK2 constructs; format: cell-based; settings: 48 hr after transfection, serum-starved
Procedure: FIG. 6 is an autoradiograph illustrating the subcellular fractionation of WT-GFP-ERK2 (WT), APA-GFP-ERK2 (APA), or EPE-GFP-ERK2 (EPE). COS7 cells were grown in 10 cm plates and transfected with the above ERK2 constructs. Twenty-four hr after transfection the cells were serum-starved for 16 hr and subjected to cellular fractionation as described under materials and Methods. Western blot analysis of aliquots of the fractions were stained with anti GFP Ab to detect the ERK2 and its mutant, and with anti tubulin and anti c-Jun Abs as markers for the cytoplasmic and nuclear fractions respectively.
Cellular Fractionation: Transfected COS7 cells were starved (0.1% FBS) for 16 h, after which they were washed with ice-cold PBS, suspended in ice-cold buffer H, and centrifuged (12,000×g, 5 min). Then, the nuclear and cytosolic fractions were isolated as described [H. Rubinfeld, T. Hanoch, R. Seger, J. Biol. Chem. 274, 30349 (1999)]. Briefly, the pellets were suspended in 0.1% NP-40 followed by centrifugation (12,000×g, 5 min). The supernatant, containing the cytosolic fraction, was boiled in sample buffer. The pellet was suspended in extraction buffer (420 mM Nacl, 50 mM β-glycerophosphate, 0.5 mM Na3VO4, 1.5 mM MgCl2, 0.2 mM EDTA, 1 mM DTT, 25% glycerol), incubate on ice for 10 min, sonicated (50 W, 2×7 sec), and centrifuged (12,000×g, 5 min). […]

CHO cells = experiment: Fluorescence microscopy of ERK2 constructs (subcellular localization); format: cell-based; settings: overexpressed in CHO (and COS7) cells, serum-starved, fluorescent microscope
Procedure: FIGS. 1A-1R are photomicrographs illustrating the role of SPS in the non-regulated accumulation of ERK2 in the nucleus. CHO (FIGS. 1A-F and 1M-R) or COS7 cells (FIGS. 1G-L) were grown on cover slips and transfected with WT-ERK2, or the mutants 244-6A and Δ244-6. Twenty-four hr following transfection, the cells were serum-starved (16 hr), fixed, stained with DAPI and visualized using a fluorescent microscope.
FIGS. 2A-2X are photomicrographs illustrating the role of SPS in the stimulated nuclear translocation of ERK2. CHO cells were grown on cover slips and co-transfected with HA-MEK1 together with either WT-ERK2, 244-6A, or Δ244-6. Twenty-four hr after transfection, the cells were serum starved for 16 hours, treated with TPA (250 nM, 15 min), except in WT-10 where the cells were treated with 10 nM TPA for 15 min. After treatments the cells were fixed and stained with either anti-HA Ab or DAPI.
FIGS. 5A-5F are photomicrographs illustrating that mutating the Ser residues in the SPS to Glu induces the nuclear accumulation of ERK2. CHO cells were grown on cover slips and transfected with WT-GFP-ERK2 (WT), APA-GFP-ERK2 (APA), or EPE-GFP-ERK2 (EPE). Twenty-four hr after transfection, the cells were serum-starved, fixed, stained with DAPI and visualized by a fluorescent microscope.
FIGS. 7A-7H are photomicrographs illustrating that EPE-ERKs translocates to the nucleus faster than WT-ERK. CHO cells were transfected with WT-GFP-ERK2 (WT) and EPE-GFP-ERK2 (EPE). Eight (FIGS. 7A-D) or twelve (FIGS. 7E-H) hours after transfection the cells were fixed, stained with DAPI and visualized by a fluorescent microscope.
Immunofluorescence Microscopy. Cells were fixed (30 min in 3% paraformaldehyde in PBS or 10 min with ice-cold methanol), followed by 5-min permeabilization with 0.2% Triton X-100 in PBS (23° C.). The fixed cells were sequentially incubated with the appropriate Abs (45 min) followed by rhodamine-conjugated secondary Abs (45 min) and DAPI. Slides were visualized using a fluorescence microscope (Nikon, Japan) at 400× magnifications. […]

B1: APA-ERK2: GFP-ERK2 with the two Ser residues of the SPS sequence replaced by Ala (protein)
chain: MAAAAAAGPEMVRGQVFDVGPRYTNLSYIGEGAYGMVCSAYDNLNKVRVAIKKISPFEHQTYCQRTLREIKILLRFRHENIIGINDIIRAPTIEQMKDVYIVQDLMETDLYKLLKTQHLSNDHICYFLYQILRGLKYIHSANVLHRDLKPSNLLLNTTCDLKICDFGLARVADPDHDHTGFLTEYVATRWYRAPEIMLNSKGYTKSIDIWSVGCILAEMLSNRPIFPGKHYLDQLNHILGILGAPAQEDLNCIINLKARNYLLSLPHKNKVPWNRLFPNADSKALDLLDKMLTFNPHKRIEVEQALAHPYLEQYYDPSDEPIAEAPFKFDMELDDLPKEKLKELIFEETARFQPGYRS
modifications: left off: large carriers
COS7 cells
  localized in the nucleus: ~5%
CHO cells
  subcellular localization in quiescent cells: cytoplasmic distribution
